Reference: paper PMC9482650, “Quantitative fragmentomics allow affinity mapping of interactomes” (Nature Communications, 2022)

How the values were obtained:
Test in all cases: holdup assay
Parameters in all cases: key: below the threshold = too weak to quantify, mostly under pKd 3.1 to 4
Conditions in all cases: plain residues with an end cap or a label only (N-terminal biotin on a linker: ado-ado)
APBA2_1, Q99767 = target: T1, APBA2_1, Q99767
T1 sequence (Q99767 563-664, limits assumed, looked up): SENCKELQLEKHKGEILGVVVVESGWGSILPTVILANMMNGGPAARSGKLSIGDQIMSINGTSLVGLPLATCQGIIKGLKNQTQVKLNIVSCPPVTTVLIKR

APBA3_1, O96018 = target: T2, APBA3_1, O96018
T2 sequence (O96018 389-490, limits assumed, looked up): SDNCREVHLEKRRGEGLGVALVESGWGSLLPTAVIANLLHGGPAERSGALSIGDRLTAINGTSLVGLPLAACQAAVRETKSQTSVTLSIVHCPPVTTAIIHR

DLG1_1, Q12959 = target: DLG1_1, Q12959
DLG4_1, P78352 = target: DLG4_1, P78352
DLG5_1, Q8TDM6 = target: DLG5_1, Q8TDM6
FRMPD2_2, Q68DX3 = target: FRMPD2_2, Q68DX3
GRIP1_7, Q9Y3R0 = target: T3, GRIP1_7, Q9Y3R0
T3 sequence (Q9Y3R0 999-1096, limits assumed, looked up): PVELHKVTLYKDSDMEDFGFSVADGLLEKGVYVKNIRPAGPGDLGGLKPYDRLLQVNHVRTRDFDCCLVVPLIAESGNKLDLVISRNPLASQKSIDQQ

GRIP2_4, Q9C0E4 = target: GRIP2_4, Q9C0E4
GRIP2_5, Q9C0E4 = target: GRIP2_5, Q9C0E4
GRIP2_6, Q9C0E4 = target: GRIP2_6, Q9C0E4
HTRA4, P83105 = target: T4, HTRA4, P83105
T4 sequence (P83105 378-476, limits assumed, looked up): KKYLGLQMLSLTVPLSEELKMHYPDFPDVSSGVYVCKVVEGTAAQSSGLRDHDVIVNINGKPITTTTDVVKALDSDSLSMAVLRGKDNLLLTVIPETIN

Inadl_2, Q8NI35 = target: Inadl_2, Q8NI35
Inadl_3, Q8NI35 = target: Inadl_3, Q8NI35
Inadl_5, Q8NI35 = target: Inadl_5, Q8NI35
LIMK2, P53671 = target: LIMK2, P53671
LNX2_3, Q8N448 = target: T5, LNX2_3, Q8N448
T5 sequence (Q8N448 463-564, limits assumed, looked up): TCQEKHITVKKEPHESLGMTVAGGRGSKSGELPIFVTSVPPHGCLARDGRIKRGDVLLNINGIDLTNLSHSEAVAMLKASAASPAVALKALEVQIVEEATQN

MPP6, Q9NZW5 = target: T6, MPP6, Q9NZW5
T6 sequence (Q9NZW5 125-219, limits assumed, looked up): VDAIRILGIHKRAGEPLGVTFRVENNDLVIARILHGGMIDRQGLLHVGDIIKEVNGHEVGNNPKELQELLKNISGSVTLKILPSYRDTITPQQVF

PDLIM1, O00151 = target: PDLIM1, O00151
PDZD2_2, O15018 = target: T7, PDZD2_2, O15018
T7 sequence (O15018 329-429, limits assumed, looked up): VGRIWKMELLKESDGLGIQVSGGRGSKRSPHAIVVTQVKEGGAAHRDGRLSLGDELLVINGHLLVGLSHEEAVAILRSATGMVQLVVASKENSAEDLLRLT

RADIL, Q96JH8 = target: T8, RADIL, Q96JH8
T8 sequence (Q96JH8 971-1071, limits assumed, looked up): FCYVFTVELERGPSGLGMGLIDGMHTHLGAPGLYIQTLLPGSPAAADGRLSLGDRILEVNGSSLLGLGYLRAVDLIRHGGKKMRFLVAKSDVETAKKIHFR

RAPGEF6, Q8TEU7 = target: T9, RAPGEF6, Q8TEU7
T9 sequence (Q8TEU7 525-625, limits assumed, looked up): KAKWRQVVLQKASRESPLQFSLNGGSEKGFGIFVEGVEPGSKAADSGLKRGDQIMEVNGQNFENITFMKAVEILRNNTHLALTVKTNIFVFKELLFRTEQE

SNTB1, Q13884 = target: T10, SNTB1, Q13884
T10 sequence (Q13884 107-205, limits assumed, looked up): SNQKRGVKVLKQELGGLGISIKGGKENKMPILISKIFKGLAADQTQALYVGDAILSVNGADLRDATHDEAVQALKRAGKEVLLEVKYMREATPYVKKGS

SNTG1, Q9NSN8 = target: T11, SNTG1, Q9NSN8
T11 sequence (Q9NSN8 52-150, limits assumed, looked up): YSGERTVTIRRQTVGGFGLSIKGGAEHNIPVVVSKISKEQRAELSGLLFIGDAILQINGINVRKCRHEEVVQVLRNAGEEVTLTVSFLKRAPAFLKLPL

TIAM2, Q8IVF5 = target: T12, TIAM2, Q8IVF5
T12 sequence (Q8IVF5 885-986, limits assumed, looked up): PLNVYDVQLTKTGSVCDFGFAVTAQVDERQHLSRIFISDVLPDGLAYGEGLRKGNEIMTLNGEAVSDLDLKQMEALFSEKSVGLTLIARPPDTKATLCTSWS

TJP1_3, Q07157 = target: TJP1_3, Q07157
Chain of TJP1_3, Q07157 (Q07157 416-512): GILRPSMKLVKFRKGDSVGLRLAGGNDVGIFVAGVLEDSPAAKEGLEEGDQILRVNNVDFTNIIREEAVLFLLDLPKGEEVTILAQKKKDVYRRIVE

Chain of Inadl_3, Q8NI35 (Q8NI35 359-469): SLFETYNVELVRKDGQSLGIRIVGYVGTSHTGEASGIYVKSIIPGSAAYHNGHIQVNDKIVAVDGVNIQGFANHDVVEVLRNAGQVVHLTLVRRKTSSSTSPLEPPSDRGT
Chain of GRIP2_4, Q9C0E4 (Q9C0E4 446-548): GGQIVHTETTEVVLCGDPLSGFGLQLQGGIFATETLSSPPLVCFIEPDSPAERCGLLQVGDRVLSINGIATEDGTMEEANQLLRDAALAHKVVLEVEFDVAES
Chain of GRIP2_5, Q9C0E4 (Q9C0E4 544-642): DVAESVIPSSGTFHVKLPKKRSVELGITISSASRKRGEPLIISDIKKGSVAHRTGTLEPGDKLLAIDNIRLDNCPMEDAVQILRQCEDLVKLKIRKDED
Chain of Inadl_2, Q8NI35 (Q8NI35 238-335): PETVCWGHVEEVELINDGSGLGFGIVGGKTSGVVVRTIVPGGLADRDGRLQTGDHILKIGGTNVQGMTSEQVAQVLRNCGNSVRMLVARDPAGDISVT
Chain of Inadl_5, Q8NI35 (Q8NI35 673-780): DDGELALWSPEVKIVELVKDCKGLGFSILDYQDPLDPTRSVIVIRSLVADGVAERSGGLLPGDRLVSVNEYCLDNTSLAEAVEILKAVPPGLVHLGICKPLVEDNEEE
Chain of GRIP2_6, Q9C0E4 (Q9C0E4 648-740): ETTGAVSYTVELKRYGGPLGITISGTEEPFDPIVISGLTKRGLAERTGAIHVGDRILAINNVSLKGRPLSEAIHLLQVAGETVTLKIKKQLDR
Chain of PDLIM1, O00151 (O00151 1-87): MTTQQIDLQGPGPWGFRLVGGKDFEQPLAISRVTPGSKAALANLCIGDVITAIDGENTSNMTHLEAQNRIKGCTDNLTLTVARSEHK
Chain of DLG5_1, Q8TDM6 (Q8TDM6 617-713): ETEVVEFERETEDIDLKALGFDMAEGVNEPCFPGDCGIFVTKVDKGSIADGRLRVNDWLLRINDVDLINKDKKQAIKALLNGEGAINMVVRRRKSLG
Chain of FRMPD2_2, Q68DX3 (Q68DX3 944-1038): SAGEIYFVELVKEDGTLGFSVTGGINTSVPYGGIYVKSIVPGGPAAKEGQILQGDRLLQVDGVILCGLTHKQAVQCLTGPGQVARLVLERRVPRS
Chain of LIMK2, P53671 (P53671 143-248): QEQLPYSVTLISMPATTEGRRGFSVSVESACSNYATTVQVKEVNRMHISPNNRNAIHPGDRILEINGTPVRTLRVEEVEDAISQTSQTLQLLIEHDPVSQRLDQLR
Chain of DLG4_1, P78352 (P78352 62-152): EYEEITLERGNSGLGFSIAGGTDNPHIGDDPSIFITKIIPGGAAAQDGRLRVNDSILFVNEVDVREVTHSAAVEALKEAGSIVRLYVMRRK

Binder | pKd (APBA2_1, Q99767) | pKd (APBA3_1, O96018) | pKd (DLG1_1, Q12959) | pKd (DLG4_1, P78352) | pKd (DLG5_1, Q8TDM6) | pKd (FRMPD2_2, Q68DX3) | pKd (GRIP1_7, Q9Y3R0) | pKd (GRIP2_4, Q9C0E4) | pKd (GRIP2_5, Q9C0E4) | pKd (GRIP2_6, Q9C0E4) | pKd (HTRA4, P83105) | pKd (Inadl_2, Q8NI35) | pKd (Inadl_3, Q8NI35) | pKd (Inadl_5, Q8NI35) | pKd (LIMK2, P53671) | pKd (LNX2_3, Q8N448) | pKd (MPP6, Q9NZW5) | pKd (PDLIM1, O00151) | pKd (PDZD2_2, O15018) | pKd (RADIL, Q96JH8) | further results
LGRSTPQSEV [DGKH, Q86XP1] | below the threshold | below the threshold | below the threshold | 3.85 | below the threshold | below the threshold | below the threshold | below the threshold | below the threshold | below the threshold | below the threshold | below the threshold | below the threshold | below the threshold | below the threshold | below the threshold | 3.71 | below the threshold | 4.72 | below the threshold | pKd (RAPGEF6, Q8TEU7): below the threshold; pKd (SNTB1, Q13884): 4.03; pKd (SNTG1, Q9NSN8): 3.96; pKd (TIAM2, Q8IVF5): below the threshold; pKd (TJP1_3, Q07157): below the threshold
YNNCLEILRV [DCAF7, P61962] | below the threshold | below the threshold | below the threshold | below the threshold | below the threshold | below the threshold | below the threshold | below the threshold | below the threshold | below the threshold | 4.68 | 3.65 | below the threshold | below the threshold | below the threshold | below the threshold | below the threshold | below the threshold | below the threshold | 5.14 | pKd (RAPGEF6, Q8TEU7): below the threshold; pKd (SNTB1, Q13884): below the threshold; pKd (SNTG1, Q9NSN8): below the threshold; pKd (TIAM2, Q8IVF5): 4.04; pKd (TJP1_3, Q07157): below the threshold
RRISSLESEV [GRIN2C, Q14957] | below the threshold | below the threshold | 4.86 | 4.68 | below the threshold | 3.85 | below the threshold | below the threshold | below the threshold | below the threshold | below the threshold | below the threshold | 3.68 | below the threshold | below the threshold | below the threshold | below the threshold | 3.75 | 4.98 | below the threshold | pKd (RAPGEF6, Q8TEU7): below the threshold; pKd (SNTB1, Q13884): 4.64; pKd (SNTG1, Q9NSN8): 5.11; pKd (TIAM2, Q8IVF5): 4.13; pKd (TJP1_3, Q07157): below the threshold
RRLPGKETMA [GRIK2, Q13002] | below the threshold | below the threshold | below the threshold | below the threshold | below the threshold | below the threshold | below the threshold | below the threshold | below the threshold | below the threshold | below the threshold | below the threshold | below the threshold | below the threshold | below the threshold | below the threshold | below the threshold | below the threshold | below the threshold | below the threshold | pKd (RAPGEF6, Q8TEU7): 3.53; pKd (SNTB1, Q13884): below the threshold; pKd (SNTG1, Q9NSN8): below the threshold; pKd (TIAM2, Q8IVF5): 3.97; pKd (TJP1_3, Q07157): below the threshold
